Experimental data from PMC3272265.

Tests used:
[1] = mating with proven fertile normal males; details: glycan lost; control: co-caged transgenic control females
[2] = two-cell embryos after overnight incubation; details: glycan lost; control: normal eggs
[3] = displacement of Hoechst-labelled sperm by Acr3-EGFP sperm; details: glycan lost; control: normal eggs
[4] = EGFP acrosome status and Alexa 568-SBTI staining; details: glycan lost; control: normal eggs

B1: ZP3: Zp3Mut (protein)
parent chain: MASSYFLFLCLLLCGGPELCNSQTLWLLPGGTPTPVGSSSPVKVECLEAELVVTVSRDLFGTGKLVQPGDLTLGSEGCQPRVSVDTDVVRFNAQLHECSSRVQMTKDALVYSTFLLHDPRPVSGLSILRTNRVEVPIECRYPRQGNVSSHPIQPTWVPFRATVSSEEKLAFSLRLMEENWNTEKSAPTFHLGEVAHLQAEVQTGSHLPLQLFVDHCVATPSPLPDPNSSPYHFIVDFHGCLVDGLSESFSAFQVPRPRPETLQFTVDVFHFANSSRNTLYITCHLKVAPANQIPDKLNKACSFNKTSQSWLPVEGDADICDCCSHGNCSNSSSSQFQIHGPRQWSKLVSRNRRHVTDEADVTVGPLIFLGKANDQTVEGWTASAQTSVALGLGLATVAFLTLAAIVLAVTRKCHSSSYLVSLPQ
no change: other: in vivo fertility (litter size) [1] | other: in vitro fertilisation rate [2] | other: reversibility of sperm binding [3] | other: induction of sperm acrosome exocytosis [4]
